Experimental data from publication PMC2132865.

Key:
[1] = biological target: Fam (endogenous, MDCKII cells) (dog (endogenous in MDCKII)); experiment: co-IP
[2] = biological target: GST-AF-6 (1130–1612 aa); experiment: pull-down

| stoichiometry N [1] [AF-6 per Fam] | Kd [2] [nM] | Substance |
| --- | --- | --- |
| 0.1 | – | AF-6 (endogenous, MDCKII cells) (natural protein) |
| – | 810 | MBP-Fam (1476–1918 aa) (domain or fragment) |
